Experimental data: the supplement of paper PMC9170038

Test system: K4 kissing-loop RNA reporter
Assay: apparent KD of K4 kissing-loop reporter; higher = weaker reporter binding
Details: Eterna round: R107; input ligand: theophylline 20 uM
Experimental: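 RNA-MaP round R107: designed RNA switches with theophylline, tryptophan, arginine or FMN aptamers are transcribed on-chip within common flanks. They are titrated with a labelled K4 kissing-loop RNA reporter in RNA-MaP buffer (100 mM Tris pH 7.5, 80 mM KCl, 4 mM MgCl2), without ligand or with the indicated ligand. Median apparent KD per design.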
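Also: bound reporter read as fluorescence of individual clusters on recovered sequencing chips by microscopy, with normalized cluster intensities fitted with a binding model.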

Row | Sequence | apparent KD of K4 kissing-loop reporter
1 | GGUGCUGUCUGUGCCGCCCUCCUCGUCCCUCGAGGACCGGUACGGCCGCCACUCGAGUGAUGUUCGGGUAGCGAUCCCUGCUAGC [Bdazzled - #18 Exc. Tryptophan A] | 0.229 µM
2 | AGCAGUGAUGUUGCAUUUAUAAAGACCGAUACCAGUAUCGAUAGAUACCCUUGGCAGCGGAUUUCCGCAACGACUAGGAAACUAG [Ex Theophylline A K4 13] | 0.466 µM
3 | AUUUAGACGAGUGAUGUUCGUGUUAUUACAGAGGAUAUGCGUAAUUGCAGAAGGCUGUAUUUAUAUAUGUUAUGUAGUUUUAAAA [whbob_Ex_FMNA__2th184] | 0.0948 µM
4 | UGUGUUUACCUGACUCAGUGAUGUUGAGAAGGAGCGUGCAAACGCACAGGUAGGUCGCUCAACCUAAAUUCAGGUGAGCACUAAA | 0.423 µM
5 | UAAGAGGACCACUGCAAGAGUCCUCGAAUACGAGGACCGGUACGGCCGCCACUCGAUAAUUUGCAGUGAUGUUGCAAGUAAGAAU [BrourdMod 5 - Jieux - Same State Tryptophan A] | 0.177 µM
6 | CCGGGCGGCCGAAGGAGCGGGCGGACCCGAGUGAUGUUCGGGUGGACCGUGAGGUCCGGUGCCCAGGUAGGUCGCGGUUCCGCCC [#2 Same State - Arginine B Attempt #5 (HarryS)] | 0.118 µM
7 | UAUUAAUAAUUAUUCUAGUGAUGUUAGAUACGAGGACCGGUACGGCCGCCACUCGCUUAUUGGUUUAUAAAUUUUAUAUUAUUUA [JR_SSTryptoA_Sub017] | 0.208 µM
8 | CACCGCAACUGAAGGAGCGCGCCAGUGAUGUUGGACGGCUUUGUCAAGGAAACUGCACCGGUGCAGGUAGGUCGCAGUUCGCGGC [Ededisa] | 0.278 µM
9 | CCCAAAAUAUGCAGUGAUGUUGCAACUGAUACCAGUAUCGAAAGAUACCCUUGGCAGCGGAAAACCGCUACGUAAUUUAAAAGGG [Ex Theophylline A K4 18] | 0.34 µM
10 | GGCCGGAAGGCGAGCGCUCCCACUCCGGAAGGAGCGCCCGGAAGGGCAGGUAGGUCGCCGGAGUGAUGUUCCGGUGGAGGGCUCG [#2 Exclusion - Arginine A Attempt #19 (Inspired by Omei)] | 0.271 µM
11 | CGAGUGAUGUUCGUUCGUUUAUUUCGUUGACAGGAUAUGCGGAAACGCAGAAGGGUCACCUUUGAGUUAACGGAAUUUACGUUAU [Ex FMN A 27] | 0.552 µM
12 | CCGCUACCCUCAGGAUAUUAAAUAUUAGUGAUGUUAGUAAACCGAUGGCGAAAGCCAUCGGUAUGUUGAGAAGGGAGGGUAGCGG [whbob_SS_FMNB__2th197] | 0.891 µM
13 | AUUCAUUUCAGAGGAUAUCGAUGGAGAGUGAUGUUCUCCCAUAGCCAGUGAUGUUGGCUAGCUAUUCGAGAAGGCUGUGGGUGGA [Same State FMN B GF 27] | 0.202 µM
14 | GCUAUGGUAGGAAGGAGCGCUACUUUGUUUUUACGAGUGAUGUUCGGAAGCAGAGUGUUAAAGCAGGUAGGUCGCCUACUAUAGC [Arginine B K4 20] | 0.181 µM
15 | ACACUAUCGUCAUAGACGGUAGUGAAAGCUCAGGAUAUGAGUGAUGUUAGAAGGGAGUAAAUCUUAGGUAUCGAAUAGAUACCAA [FmnA 7 #K4BetweenAptamer #OpenEnded] | 0.287 µM
16 | UCCUAGGCUCGAAAGAGCCUAGGUAAGACUCAGGAUAUCUGGAAACAGAGAAGGGAGCUACUAGUGAUGUUAGGAAUUCCCAUUU | 0.0762 µM
17 | UUAAUAAUUCAAGGAUAUGUUUUCUAUUUCGAGUGAUGUUCGGAAUUAAUAAAUUUAAAAGAUUAUACAGAAGGUGAUGGAUAGU [Cynwulf-mod#4] | 0.129 µM
18 | GACAUCUAUCGCCGAUAGUGUUUAUCUUGGGAGGAUAUGUCAGCGGACAGAAGGCCCAGUGAUGUUGGGUAGAUGACCGUUGCUU [Edbiza] | 0.127 µM
19 | AGUGGACGUGUCCGGAGUGAUGUUCCGGAUACCAGACACGAAAGUGUCCCUUGGCAGCCGGAGUGAUGUUCCGGCGUUCACUAAA [Omei KL Theo A Exc B v1] | 0.22 µM
20 | CUGGGUUGACGAAAAGUCAACAAAAGAGAAGGAGCGCACGAAAGUGCAGGUAGGUCGCUCAAUCCAGUGAUGUUGGGUCAUCCAG [#SwitchBubble 14 #K4Late] | 1.11 µM
21 | GGAUAGGACAGAGGAUAUGGUAGUGAUGUUACCAAACUGGUUACUAAUGUCAGAAAACUGGCAAAUCCAGAAGGCUGUCCUAUCG [KL-XFMN-B13] | 0.0695 µM
22 | GUCUCCGUCGAUGAUACCAGUCGAUGUACGUCAGGUACCCUUUGAGUGAUGUUCAGAUUAGACCCUUGGCAGCAUAUCGAGGCUC [theeternabot_exclusion_KL_Theo_B_24] | 0.444 µM
23 | GGGAACUCUUACGAUACCAGCCGGAGUGAUGUUCCGUGCUUGGACGUAGUAACCCGCACCGGCCCUUGGCAGCGUGGAUCUUGUG [Esgeonin] | 0.0732 µM
24 | UCCUAGGCUCGAAAGAGCCUAGGAUUAUCUCAGGAUAUCCGGAAACGGAGAAGGGAGAAACUAGUGAUGUUAGGGAUUCCCUAUU | 0.259 µM
25 | UUUGGUUUCUCGGCCGCCACUCGUUGUCUAUGGGCUUCAGGGAUAUAGUGAUGUUAUGUAUAGAAGAGGACCGGGAGAAGGUUUU [ExTryptoB.Dv] | 0.0423 µM
26 | GUGGGCUCGGGAGGAUAUGAGUCUAGUGAUGUUAGGCGGUCCAUGCGCGUGGCGCGUUAUGCCCUUUUAGAAGGCCCGAGCCCUC [#2 Exclusion - FMN B Attempt #24 (HarryS)] | 0.0864 µM
27 | GGUGACGGCCAGGAGUGAUGUAUAGAAUAGCGAGGACCGGUACGGCCGCCACUCGUGAAGAAAAGGGAGUGAUGUUCCGUAAUGU [Kazoo] | 0.126 µM
